In article PMC6499398:
Where two headings read alike, the source gives them in different places.

How the values were obtained:
Test in all cases: EMSA
TDP43(WT) [1] = molecular target: T1, TDP43(WT) (UniProt Q13148 1-414)
TDP43(WT) [2] = molecular target: T1, TDP43(WT); remark: listed apart in the source
TDP43(WT) [3] = molecular target: T1, TDP43(WT); remark: listed apart in the source

T1 sequence (Q13148 whole entry): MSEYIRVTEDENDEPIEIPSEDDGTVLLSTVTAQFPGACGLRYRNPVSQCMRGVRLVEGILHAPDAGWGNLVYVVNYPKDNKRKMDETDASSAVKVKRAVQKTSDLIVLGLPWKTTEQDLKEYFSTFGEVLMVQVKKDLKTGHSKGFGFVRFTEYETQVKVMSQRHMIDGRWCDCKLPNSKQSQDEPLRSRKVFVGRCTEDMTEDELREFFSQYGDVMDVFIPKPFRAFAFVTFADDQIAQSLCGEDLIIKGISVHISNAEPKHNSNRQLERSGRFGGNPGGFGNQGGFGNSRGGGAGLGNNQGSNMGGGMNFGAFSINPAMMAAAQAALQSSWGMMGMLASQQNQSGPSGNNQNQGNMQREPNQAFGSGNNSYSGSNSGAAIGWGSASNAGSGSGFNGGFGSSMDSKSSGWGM

Binder | binding result (TDP43(WT) [3]) | also measured
UGUGUGUGUGUGUGUGUGUGUGUG (ssRNA) [(UG)12] |  | Kd (TDP43(WT) [1]): 0.35 ± 0.1 nM
TGTGTGTGTGTGTGTGTGTGTGTG (ssDNA) [(TG)12] |  | Kd (TDP43(WT) [2]): 7.4 ± 0.34 nM
GCGCGCGCGCGCGCGCGCGCGCGC (ssDNA) [(GC)12] | no binding | 
ATATATATATATATATATATATAT (ssDNA) [(AT)12] | no binding | 
